Experimental data from the Human Domainome abundance scans (Beltran et al. 2025).

B1: SAM and SH3 domain-containing protein 1, residues 630 to 700; numbered along this chain, O94885 (parent)
chain: GRPPQPKSVEDLLDRINLKEHMPTFLFNGYEDLDTFKLLEEEDLDELNIRDPEHRAVLLTAVELLQEYDSN

Variants of: B1
Assay: abundance fitness (aPCA) (normalised: wild type 0, dead -1); higher = more abundant; growth selection in yeast, the domain comes from the species named
Details: Homo sapiens

Abundance fitness, by site and new letter:
V57: F -0.747 | Q 0.251 | L 0.199 | P -0.484 | R 0.418 | D 0.089 | T 0.232 | I -0.059 | W -0.397 | N 0.15 | H -0.166 | S 0.243 | E 0.196 | C 0.107 | M 0.067 | G -0.195
L58: K -0.588 | T -0.72 | Y -0.905 | W -0.819 | A -0.531 | N -0.51 | G -0.667 | P -0.501 | F -0.596 | V -0.53 | C -0.82 | H -0.53 | I 0.167 | R -0.651 | M -0.717 | D -0.347 | S -0.516 | Q -0.468
L65: G -0.808 | N -0.841 | R -0.82 | P -0.88 | K -0.812 | Q -0.707 | S -0.69 | H -0.853 | D -0.511 | E -0.758 | C -0.538 | A -0.625 | V -0.452 | I -0.433 | F -0.696 | Y -0.961 | T -0.767 | W -0.959
L59: I -0.525 | A -0.569 | V -0.735 | Q -0.478 | D -0.577 | Y -0.823 | W -0.822 | C -0.678 | T -0.562 | S -0.514 | H -0.564 | G -0.511 | K -0.206 | M 0.001 | P -0.445 | F -0.792 | N -0.491
L64: V -0.234 | W 0.148 | N 0.295 | S 0.31 | K 0.264 | E 0.483 | I -0.393 | H 0.222 | A 0.343 | C 0.019 | P -0.595 | F -0.117 | R 0.199 | T 0.166 | D 0.33 | M 0.193
Q66: D -0.49 | M -0.422 | N 0.059 | E -0.623 | C -0.448 | A -0.317 | L -0.351 | P -0.673 | G -0.197 | H -0.035 | F -0.694 | I -0.563 | K 0.267
T60: Y -0.449 | F -0.613 | H 0.302 | W -0.378 | C -0.293 | M -0.385 | V -0.735 | N 0.348 | R 0.237 | D 0.245 | G 0.071 | I -0.927 | L -0.579 | P -0.63 | S 0.227 | E 0.398 | A 0.242 | Q 0.266
A61: C -0.483 | L -0.997 | P -0.731 | V -0.644 | D -0.787 | R -0.904 | E 0.074 | F -0.759 | M -0.324 | H -0.497 | S -0.225 | T -0.479 | I -0.983 | W -0.287 | N -0.479 | Q -0.036 | Y -0.609
E63: D -0.058 | Q -0.018 | M -0.492 | W -0.751 | T -0.226 | N -0.066 | V -0.831 | I -0.898 | Y -0.687 | L -0.587 | R 0.133 | H -0.075 | F -0.866 | S 0.004 | K 0.244 | G -0.15 | A 0.034
V62: W -0.8 | A -0.091 | D -0.607 | K 0.005 | P -0.517 | M -0.648 | G -0.524 | E -0.489 | C -0.241 | I -0.14 | T -0.476 | Q -0.769 | L -0.647 | F -0.916 | H -0.596 | Y -0.82 | N -0.578
